# According to IntAct's records for PubMed 31254514:
# B1: Beta-crystallin A4 (Homo sapiens), P53673 (parent)
# chain: MTLQCTKSAGPWKMVVWDEDGFQGRRHEFTAECPSVLELGFETVRSLKVLSGAWVGFEHAGFQGQQYILERGEYPSWDAWGGNTAYPAERLTSFRPAACANHRDSRLTIFEQENFLGKKGELSDDYPSLQAMGWEGNEVGSFHVHSGAWVCSQFPGYRGFQYVLECDHHSGDYKHFREWGSHAPTFQVQSIRRIQQ
# partner: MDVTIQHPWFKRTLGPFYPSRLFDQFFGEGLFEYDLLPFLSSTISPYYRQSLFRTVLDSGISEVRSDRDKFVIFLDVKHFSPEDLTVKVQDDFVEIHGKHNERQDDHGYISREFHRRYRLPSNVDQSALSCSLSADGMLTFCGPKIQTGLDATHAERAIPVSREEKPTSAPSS
# B2: Beta-crystallin A4 (Homo sapiens), P53673 (parent)
# chain: B1 chain
# partner: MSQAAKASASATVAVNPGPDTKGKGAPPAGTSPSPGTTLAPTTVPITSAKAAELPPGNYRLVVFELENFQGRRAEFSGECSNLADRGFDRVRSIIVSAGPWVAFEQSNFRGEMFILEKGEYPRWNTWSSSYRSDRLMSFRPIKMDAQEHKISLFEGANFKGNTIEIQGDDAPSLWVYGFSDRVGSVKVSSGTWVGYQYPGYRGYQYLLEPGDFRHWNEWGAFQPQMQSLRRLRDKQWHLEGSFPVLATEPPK
# Variants of: B1
# Details: with cryaa_human CRYAA
row,Variant,effect of a mutation on the interaction
1,G64W,increasing interaction strength

# Variants of: B2
# Details: with crbb1_human CRYBB1, P53674
row,Variant,effect of a mutation on the interaction
1,G64W,disrupting interaction strength
